{
  "source": "paper PMC10731242",
  "about": "“Macromolecular crowding potently stimulates DNA supercoiling activity of Mycobacterium tuberculosis DNA gyrase”",
  "binders": {"B1": {"name": "50 bp DNA oligomer (FL1013/FL1014) (dsDNA)", "DNA 1": "TCAGTCCGACATCGGTCATGAATGACTATGCACGTAAACGAGATGCCAAC", "DNA 2": "GTTGGCATCTCGTTTACGTGCATAGTCATTCATGACCGATGTCGGACTGA"}},
  "conditions_in_all_cases": "protein: recombinant;recombinant, tags: His-TEV tag, removed by TEV protease;His-TEV tag, chain copies: 2;2, label: 3' Tamra~Q on FL1013, blunt",
  "key": {"[1]": {"molecular_target": "T1, DNA gyrase subunit A (GyrA);DNA gyrase subunit B (GyrB) (Mycobacterium …, UniProt P9WG47;P9WG45 1-838;1-675, |)", "T1 sequence (P9WG47 whole entry, chain 1 of 2)": "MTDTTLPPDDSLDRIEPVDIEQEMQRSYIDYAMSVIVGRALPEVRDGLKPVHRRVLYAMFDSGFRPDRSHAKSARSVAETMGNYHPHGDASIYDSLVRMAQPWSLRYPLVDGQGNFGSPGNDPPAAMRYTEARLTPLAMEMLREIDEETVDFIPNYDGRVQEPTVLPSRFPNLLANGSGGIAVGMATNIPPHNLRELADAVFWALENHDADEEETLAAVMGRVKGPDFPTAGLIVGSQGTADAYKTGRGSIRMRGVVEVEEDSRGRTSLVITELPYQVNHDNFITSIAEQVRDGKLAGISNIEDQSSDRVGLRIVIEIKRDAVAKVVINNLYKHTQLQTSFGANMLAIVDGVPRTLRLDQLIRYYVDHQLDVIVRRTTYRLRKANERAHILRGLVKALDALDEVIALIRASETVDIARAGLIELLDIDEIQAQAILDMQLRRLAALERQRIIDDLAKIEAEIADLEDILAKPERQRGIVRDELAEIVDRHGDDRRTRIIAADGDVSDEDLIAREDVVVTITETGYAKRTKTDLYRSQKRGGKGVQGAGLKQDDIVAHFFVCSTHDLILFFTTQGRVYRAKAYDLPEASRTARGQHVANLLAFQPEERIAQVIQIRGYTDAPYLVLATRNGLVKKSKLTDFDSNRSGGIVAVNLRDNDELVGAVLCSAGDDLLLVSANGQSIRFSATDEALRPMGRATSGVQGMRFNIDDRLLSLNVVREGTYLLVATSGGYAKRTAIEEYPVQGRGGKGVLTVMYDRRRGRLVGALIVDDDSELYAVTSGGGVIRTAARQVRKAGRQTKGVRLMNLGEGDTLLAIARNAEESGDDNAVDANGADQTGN", "T1 sequence (P9WG45 whole entry, chain 2 of 2)": "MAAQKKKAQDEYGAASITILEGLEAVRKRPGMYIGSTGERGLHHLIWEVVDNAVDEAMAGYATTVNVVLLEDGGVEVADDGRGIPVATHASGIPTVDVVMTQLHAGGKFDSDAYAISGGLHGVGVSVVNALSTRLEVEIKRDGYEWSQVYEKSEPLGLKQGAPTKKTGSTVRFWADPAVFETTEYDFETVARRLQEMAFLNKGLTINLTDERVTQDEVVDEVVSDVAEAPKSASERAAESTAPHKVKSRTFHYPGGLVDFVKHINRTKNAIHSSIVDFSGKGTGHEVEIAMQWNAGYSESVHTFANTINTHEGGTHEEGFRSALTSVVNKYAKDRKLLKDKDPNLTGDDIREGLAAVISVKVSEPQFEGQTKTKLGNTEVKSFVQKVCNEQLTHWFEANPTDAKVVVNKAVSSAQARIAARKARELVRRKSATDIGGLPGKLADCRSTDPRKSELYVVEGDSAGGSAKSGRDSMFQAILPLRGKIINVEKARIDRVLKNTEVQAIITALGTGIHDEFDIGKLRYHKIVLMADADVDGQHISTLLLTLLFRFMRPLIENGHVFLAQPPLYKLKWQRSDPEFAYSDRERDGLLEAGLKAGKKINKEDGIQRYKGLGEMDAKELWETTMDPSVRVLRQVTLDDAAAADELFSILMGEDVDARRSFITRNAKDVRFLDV", "test": "EMSA; 2 mM Mg2+, 5% PEG400"}, "[2]": {"molecular_target": "T1, DNA gyrase subunit A (GyrA);DNA gyrase …", "test": "EMSA; 2 mM Mg2+, no crowding agent"}, "[3]": {"molecular_target": "T1, DNA gyrase subunit A (GyrA);DNA gyrase …", "test": "EMSA; 2 mM Mg2+, 2 M glycine betaine"}},
  "data": [
    {"binder": "B1", "values": [
      {"measurement": "Kd", "setting": "[1]", "value": "60 ± 24", "unit": "nM"},
      {"measurement": "Kd", "setting": "[2]", "value": "94 ± 4", "unit": "nM"},
      {"measurement": "Kd", "setting": "[3]", "value": "85 ± 6", "unit": "nM"}
    ]}
  ]
}
